B1: full-length AREB1: full-length Arabidopsis thaliana AREB1 protein (SEQ ID NO: 2), expressed from full-length cDNA under 35S promoter (protein, listed as Arabidopsis thaliana)
chain: MDGSMNLGNEPPGDGGGGGGLTRQGSIYSLTFDEFQSSVGKDFGSMNMDELLKNIWSAEETQAMASGVVPVLGGGQEGLQLQRQGSLTLPRTLSQKTVDQVWKDLSKVGSSGVGGSNLSQVAQAQSQSQSQRQQTLGEVTLEEFLVRAGVVREEAQVAARAQIAENNKGGYFGNDANTGFSVEFQQPSPRVVAAGVMGNLGAETANSLQVQGSSLPLNVNGARTTYQQSQQQQPIMPKQPGFGYGTQMGQLNSPGIRGGGLVGLGDQSLTNNVGFVQGASAAIPGALGVGAVSPVTPLSSEGIGKSNGDSSSLSPSPYMFNGGVRGRKSGTVEKVVERRQRRMIKNRESAARSRARKQAYTVELEAEVAKLKEENDELQRKQARIMEMQKNQETEMRNLLQGGPKKKLRRTESGPW

Columns and labels:
[1] = tested on: RD29B gene; test: RNA gel blot (Northern) analysis of downstream gene RD29B in transformed plants; format: in vivo, Arabidopsis thaliana
Description: Extraction of total RNA from plant bodies and RNA gel blot analysis using the total RNA were performed according to the method of Satoh et al (2004, Plant Cell Physiol. 45, 309-317) using a Shakemaster crusher (Bio Medical Science, Tokyo, Japan). Furthermore, probes for RNA gel blot analysis were prepared according to the method of Maruyama et al (2004, Plant J. 38, 982-993).
To prepare a pBE2113Not-AREB1 plasmid, the entire coding region of AREB1 was amplified by PCR using a primer with a Not I linker and then the resultant was introduced into pBE2113Not (Liu et al., 1998, Plant Cell 10, 1391-1406) in the sense orientation. pBE2113Not-AREB1ΔQT was prepared by amplifying the coding region of AREB1ΔQT by PCR using primers with Xba I and BamH I linkers and then introducing the resultant into the Xba I/BamH I site of pBE2113Not in the sense orientation.
To produce transformed plants with 35S-AREB1 and 35S-AREB1ΔQT, transformation vectors, pBE2113Not-AREB1 and pBE2113Not-AREB1ΔQT, were introduced into Arabidopsis thaliana (Columbia) by a suction-infiltration method (Osakabe et al., 2005, Plant Cell 17, 1105-1119) using the Agrobacterium tumefaciens C58 strain.
Here, it was examined whether or not overexpression of ABRE1ΔQT in Arabidopsis thaliana would activate the transcription of a downstream gene such as RD29B in the absence of external ABA. […]

[2] = tested on: RD29B-GUS reporter gene; test: Transient expression (transactivation) analysis with RD29B-GUS reporter in protoplasts of Arabidopsis thaliana T87 cells; format: cell-based; details: in the presence of 50 μM abscisic acid (ABA)
Description: Analysis of transient expression was performed using protoplasts derived from Arabidopsis thaliana T87 cells according to a slightly modified version of the method of Fujita et al (2004, Plant J. 39, 863-876) and the method of Satoh et al (2004, Plant Cell Physiol. 45, 309-317). Protoplast isolation and gene introduction were all performed at room temperature (25° C. to 28° C.). Protoplasts in which the gene had been introduced were allowed to stand for 16 to 20 hours at 22° C. in the dark. An enzyme solution [0.4 M mannitol, 1.5% (w/v) cellulase “Onozuka” R-10 (Yakult, Tokyo, Japan), 0.3% (w/v) macerozyme R-10 (Yakult), 0.1% (w/v) bovine serum albumin, 10 mM CaCl2, 20 mM KCl, and 20 mM MES, pH 5.7] was prepared according to the method of Sheen (2002) (http://genetics.mgh.harvard.edu/sheenweb/).
A DNA fragment containing a portion or the whole of AREB1 cDNA was amplified by PCR and then the product was cloned into the Not I site of an expression vector pBI35SΩ (Abe et al., 1997, Plant Cell 9, 1859-1868). Thus, a plasmid having an AREB1 bZIP DNA binding domain was prepared. The plasmid was then used for an experiment for the analysis of transient expression. To remove a 640-base-pair fragment that was partially cleaved with EcoT14I from the pBI35SΩ-AREB1 plasmid, self-binding ligase reaction was performed after partial cleavage with EcoT14I. […]

Row | Molecule | expression of the downstream gene RD29B (Northern analysis) ([1]; wild-type (WT) and vector control plants, 50 μM ABA, 7 hours) | GUS activity (RD29B-GUS reporter) [2] | expression of the downstream RD29B gene (Northern analysis) ([1]; 2-week-old seedlings of transformed plants, in the absence of ABA)
1 | CC1=CC(=O)CC(C)(C)[C@@]1(O)/C=C/C(C)=C\C(=O)O [ABA, abscisic acid, reference compound] | could be confirmed only in the presence of 50 μM ABA | – | –
2 | B1 | – | significant enhancement in GUS activity | not observed

From US20090089899A1, “Method for Enhancing Drought Stress Tolerance in Plants by Active AREB1” (priority 2005, published 2009)
